According to FireProtDB (doi:10.1021/bi00067a022):

B1: Ribonuclease, P00648 (parent)
chain: MMKMEGIALKKRLSWISVCLLVLVSAAGMLFSTAAKTETSSHKAHTEAQVINTFDGVADYLQTYHKLPDNYITKSEAQALGWVASKGNLADVAPGKSIGGDIFSNREGKLPGKSGRTWREADINYTSGFRNSDRILYSSDWLIYKTTDHYQTFTKIR

Variants of: B1
Conditions: Bacillus amyloliquefaciens, pH 6.3, 25 °C, Fluorescence, MES 450 mM, reversible: yes, structure 1BNI, whole UniProt chain shown

## MMKMEGIALKKRLSWISVCLLVLVSAAGMLFSTAAKTETSSHKAHTEAQVINTFDGVADYLQTYHKLPDNYITKSEAQALGWVASKGNLCDVAPGKSIGGDIFSNREGKLPGKSGRTWREADINYTCGFRNSDRILYSSDWLIYKTTDHYQTFTKIR [A90C S127C]
Urea
  ddG of mutation (higher = less stable): -5.06 kJ/mol
  denaturant m value: 1.73 kcal/mol/M
  denaturant midpoint (higher = more stable): 5.77 M
  unfolding free energy: 41.8 kJ/mol

## MMKMEGIALKKRLSWISVCLLVLVSAAGMLFSTAAKTETSSHKAHTEAQVINTFDGVADYLQTYHKLPDNYITKSEAQALGWVASKGNLADVAPGKSIGGDIFSNREGKLPGKSGRTWREADINYTSGFRNCDRILYSSDWLIYKTTDCYQTFTKIR [S132C H149C]
GdnHCl
  ddG of mutation (higher = less stable): -17.2 kJ/mol
  denaturant m value: 4.3 kcal/mol/M
  denaturant midpoint (higher = more stable): 3 M
  unfolding free energy: 54 kJ/mol
